Laboratory results reported in article PMC6128628, “Impaired hepatic amyloid-beta degradation in Alzheimer’s disease” (PLoS ONE, 2018).

Assay: Degradation of fluorescein-labeled Aβ spiked into human liver homogenates (ELISA)
Type: in vitro ADME
Conditions: fluorescein-labeled peptide from DMSO stock diluted to 0.4 μg/ml, 5 μl added, 37°C, stopped on ice with protease inhibitor cocktail
Protocol: Frozen liver (~500 mg) was ground into a powder in liquid nitrogen with a mortar and pestle then transferred to 8 ml sucrose lysis buffer (SLB: 20 mM HEPES, 1.5 mM magnesium chloride, 10 mM potassium chloride, 40 mM sucrose, 1 mM EDTA, 2% glycerol, 0.5% sodium deoxycholate, 1% Tergitol, pH 7.9) at 4°C. The tissue was then homogenized using an Omni TH tissue grinder (Kennesaw, GA) at 4°C. The homogenates were centrifuged at 15,000 x g in a Type 50.4 Ti rotor (Beckman Coulter, Brea, CA) for 20 min at 4°C and the supernatant was collected. Total protein was determined with Pierce’s Micro BCA protein assay kit (Thermo Fisher Scientific, Waltham, MA).
Lyophilized fluorescein-labeled Aβ40 and Aβ42 peptides (FAβ, rPeptide, Bogart, GA) were reconstituted in DMSO to 1 mg/ml and stored at 4°C [22]. For degradation experiments, the stock peptides were diluted to 0.4 μg/ml (1:2500) in sucrose lysis buffer (SLB), 5 μl of either FAβ40 or FAβ42 was added to the reaction mixtures and samples were incubated at 37°C for 1 h or 2 h (for ELISA and Western experiments). In addition, two 0 h incubations were included: one liver homogenate with 5 μl of FAβ as well as a negative control sample without FAβ. Reactions were terminated by placing homogenates on ice and by adding SLB with complete protease inhibitor cocktail (PIC, Roche, Mannheim, Germany). Reactions used for Western blots were stopped by 2XLDS sample buffer (Invitrogen) containing 100 mM dithiothreitol.
All 4 sample sets were analyzed in triplicate with Aβ40 and Aβ42 ELISAs (Invitrogen; catalog # KHB3481 and KHB3441 following the manufacturer’s instructions. Similar sets of samples were analyzed for FAβ by Western blot (as described below) with an anti-fluorescein antibody (Table 2) which binds to both to both free and bound fluorescein.

| Substance | Aβ degraded within an hour, AD group (postmortem human liver homogenate from Alzheimer's disease subjects (n = 8) in sucrose lysis buffer pH 7.9, 1 h, Aβ40 ELISA in triplicate, p<0.05 vs ND) [%] | Aβ degraded within an hour, ND group (postmortem human liver homogenate from non-demented controls (n = 8) in sucrose lysis buffer pH 7.9, 1 h, Aβ40 ELISA in triplicate, p<0.05 vs AD) | Aβ degraded within 2 hours, AD group (postmortem human liver homogenate from Alzheimer's disease subjects (n = 8) in sucrose lysis buffer pH 7.9, 2 h, Aβ42 ELISA in triplicate, p = 0.07 vs ND) [%] | Aβ degraded within 2 hours, ND homogenates (postmortem human liver homogenate from non-demented controls (n = 8) in sucrose lysis buffer pH 7.9, 2 h, Aβ42 ELISA in triplicate, p = 0.07 vs AD) [%] |
| --- | --- | --- | --- | --- |
| Aβ40: synthetic fluorescein-labeled amyloid beta 40 peptide (rPeptide), spiked into liver homogenates | 23 | Thirty-four |  |  |
| Aβ42: synthetic fluorescein-labeled amyloid beta 42 peptide (rPeptide), spiked into liver homogenates |  |  | 80 | 94 |
